Target: T1, TNFα (tumor necrosis factor alpha), soluble (UniProt P01375 77-233)
T1 construct: also called TNFa; TNF-alpha
Test: co-precipitation with protein G-Sepharose, immunoblot with anti-Flag or anti-myc-HRP
Source text: The respective Fc-fusions were precipitated with protein G-Sepharose and co-precipitated soluble ligands were detected by immunoblotting with anti-Flag (Babco) or anti-myc-HRP (BMB).

T1 sequence (P01375 77-233 limits assumed): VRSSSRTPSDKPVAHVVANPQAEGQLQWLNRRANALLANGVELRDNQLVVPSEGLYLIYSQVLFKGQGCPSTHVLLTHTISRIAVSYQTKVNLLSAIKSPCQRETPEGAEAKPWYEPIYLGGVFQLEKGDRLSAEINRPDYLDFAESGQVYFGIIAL

B1: TRID-Fc (soluble extracellular ligand binding domain of TRID fused to the Fc portion of human immunoglobulin (IgG)) (Fc fusion)
chain: TTARQEEVPQQTVAPQQQRHSFKGEECPAGSHRSEHTGACNPCTEGVDYTNASNNEPSCFPCTVCKSDQKHKSSCTMTRDTVCQCKEGTFRNENSPEMCRKCSRCPSGEVQVSNCTSWDDIQCVEEFGANATVETPAAEETMNTSPGTPAPAAEETMNTSPGTPAPAAEETMTTSPGTPAPAAEETMTTSPGTPAPAAEETMTTSPGTPASSHY
notes: The extracellular domain is only predicted ('about 27 to about 240'); preparation is said to follow Pan et al., Science 276:111 (1997); also called Fc-extracellular domain of TRID; TNFR-5; not shown: Fc portion of human immunoglobulin (IgG)
binding result: no binding

From patent US20030118546A1 (Human Genome Sciences, published 2003)
